In paper PMC8262862:

How the values were obtained:
Assay in all cases: ELISA
B-Phuket HA = biological target: B-Phuket HA
H1 HA = biological target: H1 HA
H10 HA = biological target: H10 HA
H13 HA = biological target: H13 HA
H14 HA = biological target: H14 HA
H2 HA = biological target: H2 HA
H3 HA = biological target: H3 HA
H5 HA = biological target: H5 HA
H6 HA = biological target: H6 HA
H7 HA = biological target: H7 HA
H8 HA = biological target: H8 HA
H9 HA = biological target: H9 HA

| Substance | Kd (B-Phuket HA) [pM] | Kd (H1 HA) [pM] | Kd (H10 HA) [pM] | Kd (H13 HA) [pM] | Kd (H14 HA) [pM] | Kd (H2 HA) [pM] | Kd (H3 HA) [pM] | Kd (H5 HA) [pM] | Kd (H6 HA) [pM] | Kd (H7 HA) [pM] | Kd (H8 HA) [pM] | Kd (H9 HA) [pM] |
| --- | --- | --- | --- | --- | --- | --- | --- | --- | --- | --- | --- | --- |
| CR8033 | 110 | – | – | – | – | – | – | – | – | – | – | – |
| FI6v3 | > 100000 | 290 | 9000 | 1500 | 380 | 300 | 230 | 250 | 470 | 340 | 240 | 480 |
